Assay results reported in US20220281997A1 (NANJING GENSCRIPT BIOTECH, published 2022).

B1: R166.D1 (antibody, V domains shown)
VH: QSVEESGGRLVKPDESLTLTCTVSGFSLSNYDMIWVRQAPGKGLEWIGVIYPTGTTYYANWVKGRFTISKTSTTVGLLITSPTTEDTATYFCARKPILYVDSSGWYIDLWGQGTLVTVSS
VL: AYDMTQTPSSVSAAVGGTVSIKCQASENINNYLSWYQQKPGQPPKLLIYQASRLASAVPSRFKGSGSGTQFTLTIDDLECADAATYYCQQGHSVSNDVGNVFGGGTEVVVKG
notes: Rabbit monoclonal; also called clone R166.D1
B2: R166.F2 (antibody, V domains shown)
VH: QSVEESGGRLVTPGTPLTLTCTASGFTISSHDMSWVRQAPGKGLEWIGYIYYGSGSTDYASWAEGRFTITRNTNENTVTLKMTSLTTEDTATYFCARGGYVGGGVDAFDPWGPGTVVTVSS
VL: AYDMTQTPASVEVAVGGTVTIKCQASQSIYTYLSWYQQKPGQPPKLLIYRASTLASGVSSRFKGSGSGTDFTLTISGAQCADAATYYCQQGALSSNIHNTFGGGTEVVVKG
notes: Rabbit monoclonal; also called clone R166.F2
B3: R166.G2 (antibody, V domains shown)
VH: QSLEESGGRLVKPDETLTITCTVSGIDLSSDAMSWVRQAPGKGLEWIGLINRYGNTYYASWAKGRFTISKTSTTVDLKVTSLTTEDTATYFCARYGTDSDFYFLDLWGQGTLVTVSS
VL: DIVMTQTPASVSEPVGGTVTIKCQASQSIYSYLSWYQQKPGQRPKLLIYKASKLVSGVPSRFRGSGSGTEFTLTISDLECADAASYYCQSDWLISSNGNTFGGGTEVVVTG
notes: Rabbit monoclonal; also called clone R166.G2
B4: R166.G8 (antibody, V domains shown)
VH: LEQSGGGAEGGLVKPGGSLELCCKASGFSLSNIYWICWVRQAPGTGLEWIGCINSGSNSYTYYANWVDGRFTLSRDIDQSTGCLQLNSLTAADTAMYYCARDRDAADTSDWSLNFWGQGTLVTVSS
VL: QVLTQTPSSVSAAVGGTVTISCQSSDSVNNDNWLAWYQQKPGQPPKLLIYQASKLASGVPSRFSGSGSGTQFTLTISGVQCDDAANYYCQGTGYSSTWYVAFGGGTEVVVKG
notes: Rabbit monoclonal; also called clone R166.G8
B5: R166.H8 (antibody, V domains shown)
VH: QSVEESGGRLVTPGTPLTLTCTVSGFSLSSFAMSWVRQAPGKGLEWIGIIYATGGTRDYATWAAGRFTISKTSTTVGLKMTSPTTEDTATYFCARDRSPDYSAAFNLWGQGTLVTVSS
VL: IVMTQTPSSKSVPVGDTVTINCQASESVYSNNHLAWFQQKPGQPPKLLIYSASTLESGVPSRFKGSGSGTQFTLTISGVQCDDAATYYCAGYKSSDTDGTSFGGGTEVVVKG
notes: Rabbit monoclonal; also called clone R166.H8
B6: R166.E7 (antibody, V domains shown)
VH: QSVEESGGRLVTPGTPLTLTCTVSGFSLSSFAMSWVRQAPGKGLEWIGIIYTGGTRDYATWAKGRFTISKTSTTVDLKMTSPTTEDTATYFCARDRSPDYSAAFNLWGQGTLVTVSS
VL: B5 VL
notes: Rabbit monoclonal; also called clone R166.E7
B7: R166.G10 (antibody, V domains shown)
VH: QSVEESGGRLVTPGTPLTLTCTVSGFSLSSSAVSWVRQAPGKGLEYIGIIGSGGSTYYASWVNGRFTISKTSTTVDLKMTSLTAADTATYFCARYGGNSGGYDSFNLWGQGTLVTVSS
VL: DVVMTQTPASVSEPVGGTVTIKCQASQSIYSHLSWYQQKPGQPPKLLIHGASTLASGASSRFKASGSGTEFTLTISDLECADAATYYCQCTAGTSIYGNAFGGGTEVVVRG
notes: Rabbit monoclonal; also called clone R166.G10
B8: R166.G3 (antibody, V domains shown)
VH: QSVEESGGRLVTPGTPLTLTCTVSGIDLSRYAMGWVRQAPGKGLEYIGIIGYGGNTNYANWAKGRFTISKTSSTTVDLKMTSPTTEDTATYFCARDNKSGGNNGYPYYGLDLWGPGTLVTVSS
VL: AYDMTQTPASVEVPVGGTVTINCQASQSISSHLAWYQQKRGQPPKVLIYYASTLASGVSSRFKGSGSGTEYTLTISGVECADAATYFCHQSYSGSDVDNTFGGGTEVVVRG
notes: Rabbit monoclonal; also called clone R166.G3

target: T1, AS673 VHH (camel-derived); test: indirect ELISA, VHH coated
T1 construct: One of the 10 different camel-derived nanobodies; not shown: His tag (VHH-His)
Method: (§1) The ELISA plate was coated with 10 different VHHs at […] in 100 μl/well of PBS at 4° C. overnight, respectively; the plate was washed with PBS-T (0.05% Tween) and blocked with 200 μl/well of PBST containing 1% BSA at 37° C. for 0.5 hours; the blocking solution was aspirated and discarded, and 100 μl of 1 μg/ml purified antibodies were added to the first well, diluted in a 3-fold gradient for a total of 11 test concentration gradients and incubated at room temperature for 1 hour; the plate was washed three times with PBST and incubated with 100 μl/well of goat anti-rabbit IgG conjugated with horseradish peroxidase (GenScript Goat Anti-Rabbit IgG Antibody (H&L) [HRP], pAb; CAT #: A00098) at 37° C. for 0.5 hours; the plate was washed five times with PBST, and then a TMB color developing solution was added; and the plate was incubated in the dark at room temperature for 15 minutes. The reaction was stopped by adding 50 μl of 1 M HCl stop solution. The plate was read at 450 nm using a microplate reader; and the binding abilities of 15 clones to VHH-His were obtained (as shown in FIGS. 6a and 6b). […] On one hand, the affinities of the antibody of the same camel-derived nanobody to different camel-derived nanobodies were different; on the other hand, the affinities of different antibodies of camel-derived nanobodies to the same camel-derived nanobody were different. However, on the whole, all the 15 purified antibodies can be recognized with 10 different camel-derived nanobodies.

T1 sequence (VHH, as listed by the source): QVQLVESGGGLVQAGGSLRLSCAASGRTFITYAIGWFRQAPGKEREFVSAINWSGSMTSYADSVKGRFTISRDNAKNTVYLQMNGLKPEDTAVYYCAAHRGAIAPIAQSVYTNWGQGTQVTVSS

binding result	Binder
binds	B1
binds	B2
binds	B3
binds	B4
binds	B5
binds	B6
binds	B7
binds	B8

target: T2, AS154 VHH (camel-derived); test: indirect ELISA, VHH coated
T2 construct: One of the 10 different camel-derived nanobodies; not shown: His tag (VHH-His)
Method: as §1

T2 sequence (VHH, as listed by the source): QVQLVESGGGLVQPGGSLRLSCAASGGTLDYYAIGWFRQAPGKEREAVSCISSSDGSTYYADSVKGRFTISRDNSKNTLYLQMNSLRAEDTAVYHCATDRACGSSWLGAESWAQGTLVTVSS

binding result	Binder
binds	B1
binds	B2
binds	B3
binds	B4
binds	B5
binds	B6
binds	B7
binds	B8

target: T3, AS656 VHH (camel-derived); test: indirect ELISA, VHH coated
T3 construct: One of the 10 different camel-derived nanobodies; not shown: His tag (VHH-His)
Method: as §1

T3 sequence (VHH, as listed by the source): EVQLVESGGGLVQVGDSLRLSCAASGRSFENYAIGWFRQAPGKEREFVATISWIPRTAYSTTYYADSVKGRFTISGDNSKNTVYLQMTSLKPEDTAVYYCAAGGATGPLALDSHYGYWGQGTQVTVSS

binding result	Binder
binds	B1
binds	B2
binds	B3
binds	B4
binds	B5
binds	B6
binds	B7
binds	B8

target: T4, AS988 VHH (camel-derived); test: indirect ELISA, VHH coated
T4 construct: One of the 10 different camel-derived nanobodies; not shown: His tag (VHH-His)
Method: as §1

T4 sequence (VHH, as listed by the source): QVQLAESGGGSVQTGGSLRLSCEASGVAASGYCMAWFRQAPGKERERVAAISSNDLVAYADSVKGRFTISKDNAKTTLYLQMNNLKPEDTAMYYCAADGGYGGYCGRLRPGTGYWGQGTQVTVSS

binding result	Binder
binds	B1
binds	B2
binds	B3
binds	B4
binds	B5
binds	B6
binds	B7
binds	B8

target: T5, AS588 VHH (camel-derived); test: indirect ELISA, VHH coated
T5 construct: One of the 10 different camel-derived nanobodies; not shown: His tag (VHH-His)
Method: as §1

T5 sequence (VHH, as listed by the source): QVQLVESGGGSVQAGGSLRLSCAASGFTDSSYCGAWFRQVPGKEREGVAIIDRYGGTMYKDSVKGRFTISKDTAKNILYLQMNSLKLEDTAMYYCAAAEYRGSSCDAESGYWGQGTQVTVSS

binding result	Binder
binds	B1
binds	B2
binds	B3
binds	B4
binds	B5
binds	B6
binds	B7
binds	B8

target: T6, AS675 VHH (camel-derived); test: indirect ELISA, VHH coated
T6 construct: One of the 10 different camel-derived nanobodies; not shown: His tag (VHH-His)
Method: as §1

T6 sequence (VHH, as listed by the source): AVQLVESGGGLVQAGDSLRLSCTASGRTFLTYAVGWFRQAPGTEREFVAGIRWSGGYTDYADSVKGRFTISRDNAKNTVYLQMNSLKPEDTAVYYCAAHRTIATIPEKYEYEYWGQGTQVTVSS

binding result	Binder
binds	B1
binds	B2
binds	B3
binds	B4
binds	B5
binds	B6
binds	B7
binds	B8

target: T7, AS587 VHH (camel-derived); test: indirect ELISA, VHH coated
T7 construct: One of the 10 different camel-derived nanobodies; not shown: His tag (VHH-His)
Method: as §1

T7 sequence (VHH, as listed by the source): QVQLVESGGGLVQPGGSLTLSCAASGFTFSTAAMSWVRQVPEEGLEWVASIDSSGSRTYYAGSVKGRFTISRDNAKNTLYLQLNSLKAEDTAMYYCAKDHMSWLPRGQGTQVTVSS

binding result	Binder
binds	B1
binds	B2
binds	B3
binds	B4
binds	B5
binds	B6
binds	B7
binds	B8

target: T8, AS200 VHH (camel-derived); test: indirect ELISA, VHH coated
T8 construct: One of the 10 different camel-derived nanobodies; not shown: His tag (VHH-His)
Method: as §1

T8 sequence (VHH, as listed by the source): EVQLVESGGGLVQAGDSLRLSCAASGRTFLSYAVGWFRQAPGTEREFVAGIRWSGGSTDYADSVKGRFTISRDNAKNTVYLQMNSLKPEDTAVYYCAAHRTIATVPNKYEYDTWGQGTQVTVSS

binding result	Binder
binds	B1
binds	B2
binds	B3
binds	B4
binds	B5
binds	B6
binds	B7
binds	B8

target: T9, AS519 VHH (camel-derived); test: indirect ELISA, VHH coated
T9 construct: One of the 10 different camel-derived nanobodies; not shown: His tag (VHH-His)
Method: as §1

T9 sequence (VHH, as listed by the source): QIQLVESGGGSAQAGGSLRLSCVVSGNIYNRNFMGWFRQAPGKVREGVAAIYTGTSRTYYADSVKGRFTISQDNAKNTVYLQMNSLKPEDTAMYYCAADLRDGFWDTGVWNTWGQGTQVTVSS

binding result	Binder
binds	B1
binds	B2
binds	B3
binds	B4
binds	B5
binds	B6
binds	B7
binds	B8

target: T10, AS325 VHH (camel-derived); test: indirect ELISA, VHH coated
T10 construct: One of the 10 different camel-derived nanobodies; not shown: His tag (VHH-His)
Method: as §1

T10 sequence (VHH, as listed by the source): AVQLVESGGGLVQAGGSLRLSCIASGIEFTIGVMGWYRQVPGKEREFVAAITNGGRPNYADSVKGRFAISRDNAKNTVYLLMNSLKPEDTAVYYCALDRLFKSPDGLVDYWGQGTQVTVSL

binding result	Binder
binds	B1
binds	B2
binds	B3
binds	B4
binds	B5
binds	B6
binds	B7
binds	B8

target: T11, His-tag camel-derived nanobody AS718 VHH-His (camel-derived); test: indirect ELISA, AS718 VHH-His coated, hybridoma supernatant
T11 construct: Immunogen; recombinantly expressed with a C-terminal His tag; also called immunogen AS718; immunogen AS718 VHH-His; not shown: C-terminal His tag
Method: The rabbit spleen was extracted and homogenized to produce a single-cell suspension, and a single-cell suspension of myeloma cells was prepared at the same time. 1.0×10⁸ splenocytes were fused with 1.2×10⁵ myeloma cells by electrofusion; the fused cells were resuspended in 100 ml of DMEM/10% FBS culture medium containing hybridoma selective agents, thymidine, hypoxanthine and aminopterin, and transferred to a 150×96-well plate in a volume of 100 μl with a pipette; and the plate was incubated at 37° C. in 6% CO₂. After 9 days of incubation, the indirect ELISA was used to evaluate the binding ability of the antibody in the supernatant to VHH-His, indicating the presence of the antibody to VHH-His.
The ELISA plate was coated with 100 μl/well of 0.5 μg/ml VHH-His or His protein in PBS at 4° C. overnight; the plate was washed with PBS-T (0.05% Tween20) and blocked with 200 μl/well of PBST containing 1% BSA at 37° C. for 0.5 hours; the blocking solution was aspirated and discarded, and 100 μl of hybridoma cell culture supernatant was added to each well and then incubated at room temperature for 1 hour; after the incubation, the supernatant was discarded, and the plate was washed three times with PBST and incubated with 100 μl/well of goat anti-rabbit IgG conjugated with horseradish peroxidase (GenScript Goat Anti-Rabbit IgG Antibody (H&L) [HRP], pAb; CAT #: A00098) at 37° C. for 0.5 hours; the plate was washed five times with PBST, and then a TMB color developing solution was added; and the plate was incubated in the dark at room temperature for 15 minutes. The reaction was stopped by adding 50 μl of 1 M HCl stop solution. The plate was read at 450 nm using a microplate reader. In FIG. 3, by the mode of indirect ELISA, immunogen AS718 VHH-His was used to coat the ELISA detection plate, and the titers of the supernatant stock solutions of 15 parent clones were detected by OD450 reading, and the cross-reactions thereof with the His-tag protein were detected at the same time to exclude non-specific combinations. In the experiment, the positive serum was used as a positive control for immunogen AS718 VHH-His, and the Anti-His antibody was used as a positive control for detection target His-tag protein in the reverse screening. The detection value greater than 0.5 was determined to be positive, and the detection value less than 0.2 was determined to be negative.

T11 sequence (VHH, as listed by the source): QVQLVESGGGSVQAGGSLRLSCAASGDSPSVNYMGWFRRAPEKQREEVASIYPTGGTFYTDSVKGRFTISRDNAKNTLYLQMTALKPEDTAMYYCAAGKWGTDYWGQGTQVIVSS

binding result	Binder
binds	B1
binds	B2
binds	B3
binds	B4
binds	B5
binds	B6
binds	B7
binds	B8
